From patent US20180303952A1 (CYTOMX THERAPEUTICS, published 2018) come the findings set out here.

“And” between values parts separate entries of the source, which are not always exact repeats. Equal entries are not always repeated. Where two headings read alike, the source gives them in different places.

Test [1] has as its target T1, recombinant human CD147-Fc chimeric protein (glycosylated) (human, UniProt P35613-2 25-205, glycosylated as supplied (migrates at about 62 kDa)).
T1 construct: Bought protein; also called CD147-Fc (glycosylated); R&D Systems cat. no; 927-EMN-050; Fc part of the bought chimera not given
T1 sequence (looked up): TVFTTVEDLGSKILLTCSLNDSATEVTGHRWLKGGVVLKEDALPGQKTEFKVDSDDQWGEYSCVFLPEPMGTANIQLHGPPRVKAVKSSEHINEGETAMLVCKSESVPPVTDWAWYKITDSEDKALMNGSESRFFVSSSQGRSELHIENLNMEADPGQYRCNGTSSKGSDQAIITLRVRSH
In words: ELISA, CD147-Fc adsorbed at 1 ug/mL, anti-human Fab-peroxidase detection; apparent KD. Here is the method:
(§1) After buffer exchange with PBS, the deglycosylated or glycosylated proteins were adsorbed onto ELISA plates at 1 μg/mL. […] Bound humanized antibody of the present disclosure was detected with anti-human Fab-peroxidase secondary antibody and the mouse 3A11 monoclonal antibody was detected with anti-mouse Fc-peroxidase secondary antibody, and Ultra TMB detection (Thermo Fisher Scientific).
(In general: An ELISA detects its analyte on a solid surface through an enzyme-linked reagent.)

The target of test [2] is T2, human CD147 protein (adsorbed to ELISA plates) (human, UniProt P35613-2 22-205, limits assumed).
T2 construct: also called human CD147 polypeptide; Basigin
T2 sequence (looked up): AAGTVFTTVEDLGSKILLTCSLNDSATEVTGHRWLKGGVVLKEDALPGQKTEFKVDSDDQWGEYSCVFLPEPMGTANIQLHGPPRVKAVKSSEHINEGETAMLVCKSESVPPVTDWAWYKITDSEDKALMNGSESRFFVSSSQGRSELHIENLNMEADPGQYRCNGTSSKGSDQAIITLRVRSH
In words: ELISA, human CD147 protein adsorbed to plate, anti-human Fab-peroxidase detection; apparent KD. How it is done:
The antibody of the present disclosure that was assayed in this exemplary study was hu 3A11 Lc1/Hc1 (VL of SEQ ID NO: 5 and VH of SEQ ID NO: 1). Mouse anti-human CD147 monoclonal antibody 3A11 (VL of SEQ ID NO: 8 and VH of SEQ ID NO: 4) was assayed as a reference. Using a standard ELISA protocol, human CD147 protein was absorbed to ELISA plates and subsequently incubated with the indicated concentration of antibody of the present disclosure. Bound humanized antibody of the present disclosure was detected with anti-human Fab-peroxidase secondary antibody and the mouse 3A11 monoclonal antibody was detected with anti-mouse Fc-peroxidase secondary antibody, and Ultra TMB detection (Thermo Fisher Scientific).

The target of test [3] is T2, human CD147 protein (adsorbed to ELISA …). The test is described as above. Here is the method:
The antibodies of the present disclosure that were assayed in this exemplary study were hu 3A11 Lc1/hu 3A11 Hc1 (VL of SEQ ID NO: 5 and VH of SEQ ID NO: 1), hu 3A11 Lc2/hu 3A11 Hc2 (VL of SEQ ID NO: 6 and VH of SEQ ID NO: 2), hu 3A11 Lc4/hu 3A11 Hc2 (VL of SEQ ID NO: 8 and VH of SEQ ID NO: 2). Using a standard ELISA protocol, human CD147 protein was absorbed to ELISA plates and subsequently incubated with the indicated concentration of antibody of the present disclosure. Bound humanized antibody of the present disclosure was detected with anti-human Fab-peroxidase secondary antibody, and Ultra TMB detection (Thermo Fisher Scientific).
The source holds these as a separate data set.

Test [4] shares this target. The description is as above. How it is done:
Using a standard ELISA protocol, human CD147 protein was absorbed to ELISA plates and subsequently incubated with the indicated concentration of antibody of the present disclosure. Bound humanized activatable antibody of the present disclosure was detected with anti-human Fab-peroxidase secondary antibody and Ultra TMB detection (Thermo Fisher Scientific).
The source holds these as a separate data set.

The target is the same in test [5]. Described as above. Here is the method: For the exemplary assay depicted in FIGS. 7A-7C, standard ELISA protocol was used, in which human CD147 protein was absorbed to ELISA plates and subsequently incubated with the indicated concentration of antibody of the present disclosure. Bound humanized activatable antibody of the present disclosure was detected with anti-human Fab-peroxidase secondary antibody and Ultra TMB detection (Thermo Fisher Scientific).
The source holds these as a separate data set.

The target in test [6] is T3, cynomolgus monkey CD147 on the cynomolgus primary kidney epithelial cell line (cynomolgus monkey).
T3 construct: whole, on cells; also called cynomolgus CD147
Briefly: FACS on cynomolgus primary kidney epithelial cell line, Alexa Fluor 647 goat anti-human IgG detection. Here is the method: In this study, the binding of the humanized anti-human CD147 antibody of the present disclosure to the indicated cell lines were performed using a standard FACS labelling method. Briefly, cells were labeled with the indicated antibodies of the present disclosure: anti-human CD147 antibody (humanized anti-human CD147 hu3A11 antibody; VH of SEQ ID NO: 1, VL of SEQ ID NO: 5) at the indicated concentrations and subsequently detected with an Alexa Fluor 647 labeled goat anti-human IgG secondary antibody.

For test [7], the target named is T4, recombinant human CD147-Fc chimeric protein deglycosylated with Protein Deglycosylation Mix II (New England … (human, UniProt P35613-2 25-205, N- and simple O-linked carbohydrates removed enzymatically (NEB Protein Deglycosylation Mix II, about 16 hrs at 37 C))).
T4 construct: Same bought protein as m9 after deglycosylation (migrates at 52 and 48 kDa); also called CD147-Fc (deglyc-NEB); Fc part of the bought chimera not given
T4 sequence (looked up): T1 sequence (looked up)
In words: ELISA, deglycosylated CD147-Fc adsorbed at 1 ug/mL, anti-human Fab-peroxidase detection; apparent KD. Here is the method: (§2) In this example, recombinant human CD147-Fc chimeric protein (R&D Systems, cat. no. 927-EMN-050) was deglycosylated of N- and simple O-linked carbohydrates using the Protein Deglycosylation Mix II (˜16 hrs incubation at 37° C.; New England Biolabs, cat. no. P6044S) or the Enzymatic Protein Deglycosylation Kit (˜1.5 days+incubation at 37° C.; Sigma-Aldrich, cat. no. EDEGLY) in accordance with their respective protocols. […] Bovine fetuin, which includes both N- and O-linked carbohydrates, was used a control for the extent of deglycosylation.
as §1

For test [8], the target named is T5, recombinant human CD147-Fc chimeric protein deglycosylated with Enzymatic Protein Deglycosylation Kit … (human, UniProt P35613-2 25-205, N- and simple O-linked carbohydrates removed enzymatically (Sigma-Aldrich EDEGLY kit, about 1.5 days at 37 C)).
T5 construct: Same bought protein as m9 after deglycosylation (migrates at 52 and 48 kDa); also called CD147-Fc (deglyc-Sigma); Fc part of the bought chimera not given
T5 sequence (looked up): T1 sequence (looked up)
Described as above. Here is the method: as §2, §1

B1: humanized anti-human CD147 monoclonal antibody hu 3A11 Lc1/Hc1 (antibody, V domains shown)
VH: EVQLVESGGGLVQPGGSLRLSCAASGFTFSNYWMDWVRQAPGKGLEWVGEIRLKSYNYATHYAASVKGRFTISRDDSKNSVYLQMNSLKTEDTAVYYCTAAGTDYWGQGTLVTVSS
VL: DIQMTQSPSSLSASVGDRVTITCRASQSVRTDVGWYQQKPGKAPKLLIYYSSNRYTGVPSRFSGSGSGTDFTLTISSLQPEDFATYYCQQDYSSPYTFGQGTKLEIK
notes: Detected with anti-human Fab or anti-human IgG secondary antibodies; also called hu 3A11 (hu Lc1/hu Hc1); hu 3A11 (hu Hc1/Lc1)
Take B1: the Kd was 0.191 nM in test [1]; 0.71 nM in test [2]; 0.852 nM in test [3]; 0.14 nM in test [4]; 0.45 nM and 0.59 nM in test [5]; 1.3 nM in test [6]. Further, the Kd in test [7] worked out at 0.185 nM; in test [8] it was 0.175 nM.
